Assay [1] has as its target T1, native human Apolipoprotein L1 (ApoL1), in purified TLF / HDL float / normal human serum / endogenous in … (human, UniProt O14791 28-398).
T1 construct: Secreted native protein carried on HDL/TLF particles; also called Native ApoL1; endogenous ApoL1
T1 sequence: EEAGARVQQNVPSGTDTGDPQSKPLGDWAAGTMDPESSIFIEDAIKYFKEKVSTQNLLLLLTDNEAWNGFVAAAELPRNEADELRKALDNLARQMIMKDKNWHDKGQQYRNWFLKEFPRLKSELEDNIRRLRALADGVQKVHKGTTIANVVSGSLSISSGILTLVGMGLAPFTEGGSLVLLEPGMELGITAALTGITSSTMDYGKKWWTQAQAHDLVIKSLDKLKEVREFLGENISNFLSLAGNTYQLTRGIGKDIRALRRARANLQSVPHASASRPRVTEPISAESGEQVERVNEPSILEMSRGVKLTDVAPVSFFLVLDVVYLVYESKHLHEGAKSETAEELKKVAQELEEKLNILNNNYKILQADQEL
Nature of the assay: Western blot of column purified TLF (2 ug), non-reducing and reducing.

The target of assay [2] is T2, ApoL1 Protein, human recombinant (Sino Biological 13910-H08B) (human, UniProt O14791 28-398).
T2 construct: also called rApoL1; recombinant ApoL1
T2 sequence: T1 sequence
Nature of the assay: dot blot (native).

Assay [3] deals with T3, BCMA on RPMI 8226 (ATCC CCL-155) multiple myeloma cells (UniProt Q02223 1-184, limits assumed).
T3 construct: whole, on cells; No BCMA-negative cell control is reported; also called MM cells
T3 sequence (looked up): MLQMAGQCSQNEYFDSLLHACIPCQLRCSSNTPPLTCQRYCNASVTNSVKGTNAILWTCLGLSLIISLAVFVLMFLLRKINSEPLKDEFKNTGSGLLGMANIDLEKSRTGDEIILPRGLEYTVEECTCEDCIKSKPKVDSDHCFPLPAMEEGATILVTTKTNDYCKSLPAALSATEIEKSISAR
The assay is described as follows: imaging flow cytometry on fixed RPMI 8226 cells; Alexa-488 labeled bsAb at 3 µg/mL against Alexa-488 labeled human IgG1 isotype control. The procedure: Cells were cultured according to standard protocols. All cell pelleting were performed at 300× g for 5 minutes at 4 C. One to two days prior to the experiment, cells were washed and split to achieve a cell density of approximately […] in a total volume of 10-30 mL containing 10 nM LY411575 (LY). On the day of the experiment, Zombie NIR dye (BioLegend Cat. 423106) was diluted 1:100 in phosphate-buffered saline (PBS). Cells were washed and resuspended in PBS with Zombie NIR dye at a concentration of 1×10\hat{ }7 cells/mL and incubated for 10 minutes at room temperature. […]
Imaging flow cytometry acquisition was performed on an ImageStream X MK II (Luminex Corporation, Seattle, Washington) with fluidics set at low speed, sensitivity set to high, magnification set to 60×, and illumination set to: 405:120 mW, 488:200 mW, 561:200 mW, 642:150 mW, SSC:4.38 mW. […] Gates were set and quantified using IDEAS software version 6.2.
Imaging flow cytometry was used as an assay to determine if the ApoL1-BCMA-bsAb (bsAb) of Example 8 binds the two intended targets in vitro. First, the bsAb and a human IgG1 isotype control were Alexa-488 labeled and binding affinities were determined by measuring total cellular florescence after incubation. […]

The target in assay [4] is T2, ApoL1 Protein, human recombinant (Sino …). Nature of the assay: imaging flow cytometry: RPMI 8226 cells pre-incubated with 30 µg/mL bsAb or isotype control, then Alexa-488 labeled recombinant ApoL1. The procedure:
Cells were prepared as above with the addition of 15 μg/mL unlabeled ApoL1 in the blocking buffer for overnight incubation. After blocking, cells were washed 2 times with CSB and aliquoted to 50 μl aliquots for each reaction. First, bsAb or isotype control was added at 30 μg/mL for 1.5 hours, followed by 2 washes and […] of Alexa labeled ApoL1-488. Cells were incubated for 1 hour and washed 3 times with the final wash resuspended in 50 μl of CSB.
Imaging flow cytometry acquisition was performed on an ImageStream X MK II (Luminex Corporation, Seattle, Washington) with fluidics set at low speed, sensitivity set to high, magnification set to 60×, and illumination set to: 405:120 mW, 488:200 mW, 561:200 mW, 642:150 mW, SSC:4.38 mW. All samples were acquired using the autosampler with INSPIRE software for an acquisition time of 4000 events or 8 minutes per sample, with events counting SSC channel from 5.2×10\hat{ }5 to 8.9×10\hat{ }7. Gates were set and quantified using IDEAS software version 6.2.
Next, Alexa-488 labeled recombinant ApoL1 was used to determine if cell bound bsAb can bind ApoL1. Some background binding of labeled ApoL1 to cells without bsAb, likely due to existing binding affinities for ApoL1 to cell membranes, was foreseen. […]

For assay [5] the target is unchanged. Nature of the assay: bridging ELISA control without bsAb (bsAb-): immobilized ApoL1, then rabbit Fc tagged BCMA, detected with anti-rabbit HRP. The procedure:
Enzyme-Linked Immunosorbent Assay (ELISA) plates were prepared by incubating them overnight at 4° C. with their respective immobilization buffer (bicarbonate/carbonate coating buffer 100 mM) or blocking buffer (PBS, 0.1% Tween-20, 1% BSA).
For the bridging ELISA experiments, ApoL1 (Sino Cat.13910-H08B) or BCMA (Sino Cat. 10620-H15H) were resuspended at a 1:10,000 dilution in ELISA binding buffer (1×PBST+1% BSA) and then incubated overnight at 4° C. ApoL1 was immobilized across all conditions except where BCMA was immobilized as a primary protein (ApoL1-*). Following immobilization, 100 μl of bispecific antibody (bsAb, […] in ELISA blocking buffer) was added and allowed to incubate for 1 hour at 37° C. Subsequently, each well underwent four rounds of 150 μl washes with 1×PBST. Next, 1 μg/mL rabbit Fc tagged BCMA in ELISA blocking buffer was allowed to incubate for 1 hr at 37° C. followed by four more rounds of 150 μl 1×PBST washes. A secondary binding component, anti-rabbit HRP, was added at 1:10,000 and the plate was incubated for an additional hour at 37° C. followed by another four rounds of 150 μl washes with 1×PBST. […] The reaction was halted by adding 50 μl of Stop Solution, and the absorbance was promptly measured at 450 nm on a SpectraMax iD3 plate reader ([…]).

For assay [6] the target is unchanged. Nature of the assay: Western blot of recombinant ApoL1 (SDS-PAGE, non-reducing and reducing).

B1: ascites Prot-G purified anti-ApoL1 antibody, clone SFIII 13.11 (mouse IgG1) (antibody, V domains shown)
VH: EVQLVESGGGLVKPGGSLKLSCAASGFTFSTYAMSWVRQSPEKRLEWVAEISNGGLYTYYPDTVTGRFTISRDNVKNILYLEMSSLRSEDTAIYYCIRENRNWYFDLWGAGTTVTVSS
VL: DVLMTQTPLSLPVSLGDQASISCRSSQSIVNSNGNTYLEWYLQKPGQSPKLLIYKVSNRFSGVPDRFSGSGSGTDFTLKISRVEAEDLGVYYCFQGSHVPLTFGAGTKLELKR
notes: Hybridoma-derived mouse IgG1; also called ascites Pro-G purified antibody; purified antibody
As for B1, the binding result in assay [1] and in assay [2] was “binds” each time.

B2: Clone 13.11×BCMAscFv: bsAbBCMA/ApoL1, anti-ApoL1, BCMA IgG1-scFv (Heavy Chain C-terminus) bispecific antibody (bispecific antibody)
heavy: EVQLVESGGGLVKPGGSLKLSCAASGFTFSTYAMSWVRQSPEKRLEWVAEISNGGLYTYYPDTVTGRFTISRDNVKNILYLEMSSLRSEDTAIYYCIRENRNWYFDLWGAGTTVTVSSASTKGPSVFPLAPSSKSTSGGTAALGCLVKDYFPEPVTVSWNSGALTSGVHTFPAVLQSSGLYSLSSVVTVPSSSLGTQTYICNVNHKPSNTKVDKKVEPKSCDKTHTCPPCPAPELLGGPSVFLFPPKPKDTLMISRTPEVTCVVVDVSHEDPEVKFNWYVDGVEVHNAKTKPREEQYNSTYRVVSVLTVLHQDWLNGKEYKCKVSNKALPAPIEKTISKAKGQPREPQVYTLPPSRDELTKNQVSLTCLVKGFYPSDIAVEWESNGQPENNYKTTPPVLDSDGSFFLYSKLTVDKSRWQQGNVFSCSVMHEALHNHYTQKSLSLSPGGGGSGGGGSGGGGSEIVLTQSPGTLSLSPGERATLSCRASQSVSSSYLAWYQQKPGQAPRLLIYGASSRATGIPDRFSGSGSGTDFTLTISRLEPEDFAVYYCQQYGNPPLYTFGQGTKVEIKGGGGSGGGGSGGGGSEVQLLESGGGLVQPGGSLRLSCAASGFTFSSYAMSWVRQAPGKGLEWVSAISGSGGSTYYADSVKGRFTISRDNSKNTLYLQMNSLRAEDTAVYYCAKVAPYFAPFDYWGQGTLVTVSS
light: DVLMTQTPLSLPVSLGDQASISCRSSQSIVNSNGNTYLEWYLQKPGQSPKLLIYKVSNRFSGVPDRFSGSGSGTDFTLKISRVEAEDLGVYYCFQGSHVPLTFGAGTKLEIKRTVAAPSVFIFPPSDEQLKSGTASVVCLLNNFYPREAKVQWKVDNALQSGNSQESVTEQDSKDSTYSLSSTLTLSKADYEKHKVYACEVTHQGLSSPVTKSFNRGEC
notes: It was used unlabeled, HRP-labeled or Alexa Fluor 488 labeled, depending on the assay; also called ApoL1-BCMA-bsAb; 488-bsAb
For the molecule B2, the “fold increase of measured fluorescence per cell compared to isotype control” value in assay [3] came to 20 ×. The “fold increase in average cell fluorescence compared to isotype control” value in assay [4] is 2 ×.

B3: BCMA Protein, Human, Recombinant (ECD, rFc Tag) (Sino Biological 10620-H15H) (Fc fusion, UniProt Q02223 1-54, looked up)
chain: MLQMAGQCSQNEYFDSLLHACIPCQLRCSSNTPPLTCQRYCNASVTNSVKGTNA
notes: extracellular domain; Bought protein; also called recombinant BCMA; rabbit Fc tagged BCMA; not shown: rabbit Fc tag
B3: the binding result in assay [5] is recorded as “no binding (tested: 1 µg/mL rabbit Fc tagged BCMA)”.

B4: recombinant anti-Hpr antibody, clone SFII 134.3 (antibody, V domains shown)
VH: QIQLVQSGPELKKPGETVKISCKASGYIFTNYGMNWVRQAPGKGLKWMGWINSYTGEATYTDDLKGRFAFSLESSASTAYLQINNLKNEDTATYFCAREGYGDYGYSFDYWGQGTTLTVSS
VL: DIQMTQSPASLSASVGETVTITCRATKNIYTYLAWYQQKQGKSPQFLVYNAKTLAEGVPSRFSGSGSGTQFSLKINSLQPEDFGNYYCQHHYGTPRTFGGGTKLEIK
notes: Recombinant form of mouse anti-Hpr clone SFII 134.3; it was detected with goat anti-mouse secondary; also called recombinant antibody
Consider B4, for which the binding result in assay [6] is given as “no binding (tested: 1:10,000 dilution of antibody)”.

B5: ascites Prot-G purified anti-Hpr antibody, clone SFII 134.3 (mouse IgG2a) (antibody, V domains shown)
VH: B4 VH
VL: DIQMTQSPASLSASVGETVTITCRATKNIYTYLAWYQQKQGKSPQFLVYNAKTLAEGVPSRFSGSGSGTQFSLKINSLQPEDFGNYYCQHHYGTPRTFGGGTKLEIKR
notes: Hybridoma-derived mouse IgG2a; also called ascites Pro-G purified antibody; purified antibody
Consider B5, for which the binding result in assay [6] was “no binding (tested: 1:10,000 dilution of antibody)”.

Values taken from patent US20260071003A1 (UNIVERSITY OF GEORGIA RESEARCH FOUNDATION, published 2026).
